One block for each substance: values may come before it.
Legend:
[1] = target: CheAΔ289 (290–671) (T. maritima) (UniProt Q56310); experiment: pulsed dipolar ESR spectroscopy
[2] = target: CheA (Thermotoga maritima) (UniProt Q56310); settings: cited from earlier work
[3] = target: CheA:CheW complex (CheAΔ289 dimer with one CheW bound to each subunit) (T. maritima) (UniProt Q56310); experiment: pulsed dipolar ESR spectroscopy

Sequence of CheA (Thermotoga maritima) (Q56310 whole entry): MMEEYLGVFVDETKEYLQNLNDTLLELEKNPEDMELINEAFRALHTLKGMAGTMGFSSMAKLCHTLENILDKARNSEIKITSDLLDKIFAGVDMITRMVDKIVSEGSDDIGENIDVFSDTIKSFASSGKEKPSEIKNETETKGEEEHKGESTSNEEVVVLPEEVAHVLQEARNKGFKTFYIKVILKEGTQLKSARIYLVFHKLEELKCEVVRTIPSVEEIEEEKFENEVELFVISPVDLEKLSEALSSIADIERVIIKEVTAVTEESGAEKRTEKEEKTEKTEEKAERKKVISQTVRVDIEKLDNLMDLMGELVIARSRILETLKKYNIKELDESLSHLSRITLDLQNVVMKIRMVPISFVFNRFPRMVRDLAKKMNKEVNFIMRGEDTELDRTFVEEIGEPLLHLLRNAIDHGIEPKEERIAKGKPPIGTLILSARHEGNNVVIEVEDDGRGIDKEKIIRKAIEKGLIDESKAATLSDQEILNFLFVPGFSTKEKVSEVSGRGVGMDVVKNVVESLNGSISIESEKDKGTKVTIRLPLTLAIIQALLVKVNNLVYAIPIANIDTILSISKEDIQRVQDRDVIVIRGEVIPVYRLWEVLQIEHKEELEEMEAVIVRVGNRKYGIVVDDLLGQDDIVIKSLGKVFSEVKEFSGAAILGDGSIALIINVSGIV
Sequence of CheW (Q56311 whole entry): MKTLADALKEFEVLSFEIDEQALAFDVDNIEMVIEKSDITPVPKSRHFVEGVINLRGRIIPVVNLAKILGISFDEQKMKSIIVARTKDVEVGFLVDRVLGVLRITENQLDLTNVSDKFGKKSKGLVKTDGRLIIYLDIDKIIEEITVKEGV

stoichiometry N [1]: 4
Substance: CheAΔ289 (290–671) (from UniProt Q56310 290-671) (domain or fragment)

Substance: CheW (from UniProt Q56311)
Kd [2]: 100 nM

stoichiometry N (Tm14 dimer per CheA:CheW dimer) [3]: 1
Substance: Tm14C (Tm14: residues 40–213) (domain or fragment)

Source: publication PMC2873776
